Substrate in assay [1]: F protein of hRSV strain Long (human respiratory syncytial virus, strain Long) (UniProt P12568)
As to the kind of experiment: cell-based or functional assay.

Substrate in assay [2]: F protein of hRSV strain Long (human respiratory syncytial virus, strain Long (ATCC VR-26)) (UniProt P12568)
As to the kind of experiment: cell-based or functional assay.

Substrate in assay [3]: F protein of hRSV strain B-1 (human respiratory syncytial virus, strain B-1 (ATCC VR-1580)) (UniProt P13843)
As to the kind of experiment: cell-based or functional assay.

Substrate in assay [4]: F protein of RSV Long (RSV LONG M-2) (human respiratory syncytial virus, strain Long) (UniProt P12568)
As to the kind of experiment: cell-based or functional assay.

Substrate in assay [5]: F protein of RSV B-1 (human respiratory syncytial virus, strain B-1) (UniProt P13843)
As to the kind of experiment: cell-based or functional assay.

Substrate in assay [6]: F protein of RSV A-2 (human respiratory syncytial virus, strain A-2) (UniProt P03420)
Briefly: cell-based or functional assay.

The target in assay [7] is Recombinant his-tagged HA1 from H7N7 strain A/Chicken/Netherlands/01/03 (Abcam Cat. No. ab61286) (Influenza A virus A/Chicken/Netherlands/01/03 (H7N7)).
Assay [8] addresses H5 Hemagglutinin (HA, A/Vietnam/1203/2004 (H5N1), Protein Sciences Cat. No. 3006) (influenza A virus A/Vietnam/1203/2004 (H5N1)). Briefly: SPR (Biacore), H5 coupled on CM5, 1:1 Langmuir model. (In general: In SPR one partner is held on a chip, and binding of the other changes the refractive index at the surface.)
Assay [9] has as its target Rabies virus glycoprotein G, Challenge Virus Standard (CVS)-11 strain (Rabies virus, strain CVS-11 (genotype 1 Lyssavirus)) (UniProt O92284). As to the kind of experiment: cell-based or functional assay.
The target in assay [10] is Rabies virus glycoprotein G, ERA strain (attenuated vaccine strain, ATCC VR332) (Rabies virus, ERA strain (genotype 1 lyssavirus)) (UniProt P03524). As to the kind of experiment: cell-based or functional assay.

B1: LG192C6 (VHH)
VHH: EVQLVESGGGLVQAGGSLRLSCEASGRTERYQAMGWFRQAPGKEREFVAVVTRWSGARTVYADSVKGRFTISRDNAENTVYLQMNSLKPEDTAVYTCAADSTNRNRGAIYYTWAYDYWGQGTQVTVSS
On to B1, for which the hRSV micro neutralization, strain Long on Hep2 cells in assay [1] was above 3 µM.

B2: LG192H2 (VHH)
VHH: EVQLVESGGGLVQAGGSLRLSCEASGRTFSNYAMGWFRQAPGKEREFVAVVTRWSGGRTVYADSVKGRFTISRDNAENTVYLQMNSLKPEDTAVYTCAADSTNRNSGAWYYTWAYDHWGQGTQVTVSS
B2: in [1], the hRSV micro neutralization, strain Long on Hep2 cells is above 3 µM.

B3: NC41 (VHH)
VHH: EVQLVESGGGLVQAGGSLSISCAASGGSLSNYVLGWFRQAPGKEREFVAAINWRGDITIGPPNVEGRFTISRDNAKNTGYLQMNSLAPDDTAVYYCGAGTPLNPGAYIYDWSYDYWGRGTQVTVSS
On to B3, for which, in assay [2], the Neutralization IC50 (nM), Long (first assay) was 202 nM and the Neutralization IC50 (nM), Long (second assay) was 122 nM. Moreover, in assay [3], the Neutralization IC50 (nM), B-1 (first assay) came to 4710 nM and the Neutralization IC50 (nM), B-1 (second assay) amounted to 3290 nM.

B4: RSVNC41 (VHH)
VHH: EVQLVESGGGLVQAGGSLSISCAASGGSLSNYVLGWFRQAPGKEREFVAAINWRGDITIGPPNVEGRFTISRDNAKNTGYLQMNSLAPDDTAVYYCGAGTPLNPGAYIYDWSYDYWGRGTQVTVSS
In the case of B4, the RSV neutralization IC50 (nM) (n = 2), Long in assay [4] worked out at 58 nM. Also, in [5], the RSV neutralization IC50 (nM) (n = 2), B1 was determined as 4000 nM. Besides, in assay [6], the RSV neutralization IC50 (nM) (n = 2), A-2 came out at 26 nM.

B5: NC41v03 (VHH)
VHH: EVQLLESGGGLVQPGGSLRISCAASGGSLSNYVLGWFRQAPGKGREFVAAINWRGDITIGPPNVEGRFTISRDNSKNTLYLQMNSLRPEDTAVYYCGAGTPLNPGAYIYDWSYDYWGQGTLVTVSS
Regarding B5, in [2], the Neutralization IC50 (nM), Long (first assay) was 255 nM. Besides, in [3], the Neutralization IC50 (nM), B-1 (first assay) came to 1510 nM.

B6: IV25 (yeast-produced NANOBODY (VHH sequence)) (VHH)
VHH: QVQLQQSGGGLVQSGGSLSLSCAASGITLNNRVVGWFRQAPGKEREFVGRIMWSVGDTFYARSVKGRFTISRDNAKNTMYLQMNALKPEDTAVYYCAAARDPDLYTGQYEYWGQGTQVTVSS
In the case of B6, in assay [7], the ELISA titer (NANOBODY concentration giving extinction 1) came to 27.8 ng/mL.

B7: IV5 (yeast-produced NANOBODY (VHH sequence)) (VHH)
VHH: QVQLQQSGGGLVQAGGSLRLSCAASGRTFSTTGMGWFRQAPGKEREFVAAFWWTGGQTFYADSVKGRFTISGDNAGNTVDLQMNSLKPEDTAVYACAAMSKPRNLWRTDSYDYWGQGTQVTVSS
In the case of B7, the ELISA titer (NANOBODY concentration giving extinction 1) in assay [7] was 30.7 ng/mL.

B8: 203B12 (VHH)
VHH: EVQLVESGGGLVQPGGSLRLSCAASGFTFSSYAMGWVRRAPGEGLEWVSSISSGGALPTYADSVKGRFTISRDNVKNTLYLQMNSLKPEDTAVYSCEKYAGSMWTSERDAWGQGTQVTVSS
Regarding B8, the Kd (as a rule, the concentration at which binding is half-saturated) in [8] amounted to 30 nM. This lies in the double-digit nanomolar range.

B9: LG202C8 (VHH)
VHH: EVQLVESGGGLVQPGGSLRLSCTGSGFTFSSYWMDWVRQTPGKDLEYVSGISPSGSNTDYADSVKGRFTISRDNAKNTLYLQMNSLKPEDTALYYCRRSLTLTDSPDLRSQGTQVTVSS
For B9, the Kd in assay [8] worked out at 10 nM.

B10: 203H9 (VHH)
VHH: EVQLVESGGGLVQPGGSLRLSCTGSGFTFSSYWMDWVRQTPGKDLEYVSGISPSGGNTDYADSVKGRFTISRDNAKNTLYLQMNSLQPEDTALYYCRRSLTLTDSPDLRSQGTQVTVSS
In assay [8], B10 returned a Kd of 15.5 nM. This Kd lies about 1.6-fold higher than the previous one.

B11: LG192C10 (VHH)
VHH: EVQLVESGGGLVQAGGSLRLSCAASEGYFRNYMVGWFRQAPGGERMFVAAISDTAYYADSVKGRFTISRDNAKNTVYLPMNSLKPEDTAVYYCAAAPKSWGTWPLVADTRSYHFWGQGTQVTVSS
As to B11, in assay [1], the hRSV micro neutralization, strain Long on Hep2 cells is above 3 µM.

B12: NC41v06 (VHH)
VHH: EVQLLESGGGLVQPGGSLRLSCAASGGSLSNYVLGWFRQAPGKGREFVAAINWRDDITIGPPNVEGRFTISRDNAKNTLYLQMNSLRPEDTAVYYCGAGTPLNPGAYIYDWSYDYWGQGTLVTVSS
Regarding B12, the Neutralization IC50 (nM), Long (first assay) in [2] was 111 nM. Moreover, the Neutralization IC50 (nM), B-1 (first assay) in assay [3] was determined as 806 nM.

B13: NC41v18 (VHH)
VHH: EVQLLESGGGLVQPGGSLRLSCAASGGSLSNYVLGWFRQAPGKGREFVAAINWRDDITIGPPNVEGRFTISRDNSKNTLYLQMNSLRPEDTAVYYCGAGTPLNPGAYIYDWSYDYWGQGTLVTVSS
B13: in assay [2], the Neutralization IC50 (nM), Long (first assay) came out at 116 nM and the Neutralization IC50 (nM), Long (second assay) is 98 nM. In assay [3], the Neutralization IC50 (nM), B-1 (first assay) was 728 nM and the Neutralization IC50 (nM), B-1 (second assay) amounted to 194 nM.

B14: LG192A8 (VHH)
VHH: EVQLVESGGGLVQAGGSLRLSCAASERTVIAYTMGWFRRAPGKERDFVAAMNWNGGNTIYADSAKGRFTISRDNAKNTVYLQMNSLKAEDTAVYYCAARPRFWGSYEYDYWGQGTQVTVSS
As to B14, in [1], the hRSV micro neutralization, strain Long on Hep2 cells is above 3 µM. In [9], this molecule gave a CVS-11 neutralizing antibody titer (RFFIT), IU/mg below 0.77 IU/mg; a CVS-11 neutralizing antibody titer (RFFIT), IU/ml below 0.5 IU/ml; a CVS-11 neutralizing antibody titer (RFFIT), IU/µM below 0.02 IU/µM; a CVS-11 neutralizing antibody titer (RFFIT), nM IC50 above 4840 nM. In [10], this molecule gave an ERA neutralizing antibody titer (RFFIT): EU/mg below 0.77 EU/mg, an ERA neutralizing antibody titer (RFFIT): EU/ml below 0.5 EU/ml, an ERA neutralizing antibody titer (RFFIT): EU/µM below 0.02 EU/µM and an ERA neutralizing antibody titer (RFFIT): nM IC50 above 4840 nM.

For the origin of these results see patent US20200123233A1.
